What was measured:
Type in all cases: cell-based, mouse
intestinal stem cells [1] = assay: Ngn3 mRNA expression during EEC differentiation; details: 2 days
Protocol: “Ngn3 Assay” as used herein is an assay used to determine the extent of expression of Ngn3 in cells, such as cells subjected to a differentiation protocol. In an exemplary Ngn3 Assay, RNA is isolated from cells that have been cultured according to a differentiation protocol, and quantitative real-time PCR is performed using commercially available primers and probes (such as Taqman probes) to determine an extent of Ngn3 expression in the cells.
(§1) Organoids or differentiated cells were harvested and RNA was extracted using RNeasy Micro Kit (Qiagen) according to the manufacturer's instruction. Quantitative real-time PCR was performed with QuantiTect Probe PCR kit (Qiagen) using commercially available primers and TaqMan probes (Life Technologies).
There has been prior speculation that Ngn3 positive secretory progenitors differentiate to EECs (Genes Dev. 2002).

intestinal stem cells [2] = assay: mRNA expression (qPCR) of ChgA and other lineage markers in differentiated intestinal stem cells; details: Noggin in step 2
Excerpt: “mRNA ChgA Expression Assay” refers to an assay used to determine the relative ChgA mRNA expression level in a cell population. For example, the assay can determine ChgA mRNA expression level of a differentiated cell population following treatment with agents being tested, as compared to an untested population of post-natal stem cells. In an example of an mRNA ChgA Expression Assay, the cells were collected and the RNA is extracted from the cells using an RNA extraction kit (such as RNeasy Mini kit, Qiagen). The ChgA expression level is then assessed by Quantitative real-time PCR using a one-step qPCR kit (such as QuantiTech Probe PCR kit, Qiagen) and ChgA primers and probes (such as commercially available Taqman probe for mouse ChgA, Life Technologies).
as §1
Cells were then cultured with EGF, Noggin, and DAPT (END), as well as small molecules. After 2-3 days of differentiation, the cells lysed and ChgA expression was measured by qRT-PCR.
Small molecules were further validated using a 24-well plate culture and the differentiation system. […]

[3] = test system: gastrointestinal stem cells; assay: Insulin / Nkx6.1 mRNA expression (qPCR), 3-stage conversion to insulin producing cells; details: added in Stage 1, combined with RepSox
Excerpt: “mRNA Insulin Expression Assay” refers to an assay used to determine the relative insulin mRNA expression level of a cell population. For example, the assay can determine the insulin mRNA level expressed in a cell population treated to increase the expression of insulin in the cells, as compared to an untreated population of cells. In an exemplary mRNA Insulin Expression Assay, the cells were collected and the RNA is extracted from the cells using an RNA extraction kit (such as RNeasy Mini kit, Qiagen). The insulin expression level is then assessed by Quantitative real-time PCR using a one-step qPCR kit (such as QuantiTech Probe PCR kit, Qiagen) and Ins1 or Ins2 primers and probes (such as the commercially available TaqMan probe for mouse Ins1 and Ins2, Life Technologies). The relative insulin mRNA expression can be determined relative to a baseline or other marker, such as Hprt mRNA expression level or other baseline marker.
Organoids or differentiated cells were harvested and RNA was extracted using RNeasy Micro Kit (Qiagen) according to the manufacturer's instruction. Quantitative real-time PCR was performed with QuantiTect Probe PCR kit (Qiagen) using commercially available primers and TaqMan probes (Life Technologies). […]

B1: R-spondin1: Wnt activator, a protein belonging to the R-Spondin family (protein, UniProt Q2MKA7 21-263, looked up)
R-spondin-1: SRGIKGKRQRRISAEGSQACAKGCELCSEVNGCLKCSPKLFILLERNDIRQVGVCLPSCPPGYFDARNPDMNKCIKCKIEHCEACFSHNFCTKCKEGLYLHKGRCYPACPEGSSAANGTMECSSPAQCEMSEWSPWGPCSKKQQLCGFRRGSEERTRRVLHAPVGDHAACSDTKETRRCTVRRVPCPEGQKRRKGGQGRRENANRNLARKESKEAGAGSRRRKGQQQQQQQGTVGPLTSAGPA
Ngn3 expression on removal of R-spondin1 (intestinal stem cells [1]): strong reduction

B2: Noggin: growth factor (protein, UniProt Q13253 28-232, looked up)
Noggin: QHYLHIRPAPSDNLPLVDLIEHPDPIFDPKEKDLNETLLRSLLGGHYDPGFMATSPPEDRPGGGGGAAGGAEDLAELDQLLRQRPSGAMPSEIKGLEFSEGLAQGKKQRLSKKLRRKLQMWLWSQTFCPVLYAWNDLGSRFWPRYVKVGSCFSKRSCSVPEGMVCKPSKSVHLTVLRWRCQRRGGQRCGWIPIQYPIISECKCSC
effect on EEC differentiation (intestinal stem cells [2]): marginal

B3: FGF10: growth factor added in Stage 1 (protein, UniProt O15520 38-208, looked up)
Fibroblast growth factor 10: QALGQDMVSPEATNSSSSSFSSPSSAGRHVRSYNHLQGDVRWRKLFSFTKYFLKIEKNGKVSGTKKENCPYSILEITSVEIGVVAVKAINSNYYLAMNKKGKLYGSKEFNNDCKLKERIEENGYNTYASFNWQHNGRQMYVALNGKGAPRRGQKTRRKNTSAHFLPMVVHS
Insulin expression [3]: further increased
